Among the data in article PMC9883448 are apparent FRET efficiency (donor dequenching) and increase of donor light intensity after photobleaching of the acceptor (FRET efficiency) values, retold here.

Holding throughout (test): FRET or BRET; apparent FRET efficiency by donor (CFP) dequenching after photobleaching of the acceptor (YFP) with 514 nm in a membrane region of whole Xenopus oocytes that co-express the two labelled subunits (cRNAs 1:1)
For orientation: In BRET a luciferase serves as donor, and the signal depends on an acceptor being close.

Assay [1] addresses human mGluR8 FRET sensor subunit (CFP or YFP in the intracellular loop i2, C-terminal tail replaced by a GABAB tail).
In assay [2] the target is human mGluR3 FRET sensor subunit (CFP or YFP in the intracellular loop i2, C-terminal tail replaced by a GABAB tail).
Assay [3] concerns the target human mGluR4 FRET sensor subunit (CFP or YFP in the intracellular loop i2, C-terminal tail replaced by a GABAB tail).
Assay [4] concerns the target human mGluR5 FRET sensor subunit (CFP or YFP in the intracellular loop i2, C-terminal tail replaced by a GABAB tail).

As to “human mGluR4 FRET sensor subunit (CFP or YFP in the intracellular loop i2, C-terminal tail replaced by a GABAB tail) (receptor)”, in assay [1], the apparent FRET efficiency (donor dequenching) was 13%.

As to “human mGluR2 FRET sensor subunit (CFP or YFP in the intracellular loop i2, C-terminal tail replaced by a GABAB tail) (receptor)”, the apparent FRET efficiency (donor dequenching) in assay [2], in assay [3] and in assay [1] was 35% in each case.

With “human mGluR5 FRET sensor subunit (CFP or YFP in the intracellular loop i2, C-terminal tail replaced by a GABAB tail) (receptor)”, the increase of donor light intensity after photobleaching of the acceptor (FRET efficiency) in assay [4] came to 23%.
